Results as given in patent US20020197616A1 (REGENTS OF THE UNIVERSITY OF MICHIGAN, published 2002).

B1: caspase-1 (enzyme, UniProt P29466 1-404, looked up)
chain: MADKVLKEKRKLFIRSMGEGTINGLLDELLQTRVLNKEEMEKVKRENATVMDKTRALIDSVIPKGAQACQICITYICEEDSYLAGTLGLSADQTSGNYLNMQDSQGVLSSFPAPQAVQDNPAMPTSSGSEGNVKLCSLEEAQRIWKQKSAEIYPIMDKSSRTRLALIICNEEFDSIPRRTGAEVDITGMTMLLQNLGYSVDVKKNLTASDMTTELEAFAHRPEHKTSDSTFLVFMSHGIREGICGKKHSEQVPDILQLNAIFNMLNTKNCPSLKDKPKVIIIQACRGDSPGVVWFKDSVGVSGNLSLPTTEEFEDDAIKKAHIEKDFIAFCSSTPDNVSWRHPTMGSVFIGRLIEHMQEYACSCDVEEIFRKVRFSFEQPDGRAQMPTTERVTLTRCFYLFPGH
notes: Construct and tag not described
B2: IKKα (enzyme, UniProt O15111 1-745, looked up)
chain: MERPPGLRPGAGGPWEMRERLGTGGFGNVCLYQHRELDLKIAIKSCRLELSTKNRERWCHEIQIMKKLNHANVVKACDVPEELNILIHDVPLLAMEYCSGGDLRKLLNKPENCCGLKESQILSLLSDIGSGIRYLHENKIIHRDLKPENIVLQDVGGKIIHKIIDLGYAKDVDQGSLCTSFVGTLQYLAPELFENKPYTATVDYWSFGTMVFECIAGYRPFLHHLQPFTWHEKIKKKDPKCIFACEEMSGEVRFSSHLPQPNSLCSLVVEPMENWLQLMLNWDPQQRGGPVDLTLKQPRCFVLMDHILNLKIVHILNMTSAKIISFLLPPDESLHSLQSRIERETGINTGSQELLSETGISLDPRKPASQCVLDGVRGCDSYMVYLFDKSKTVYEGPFASRSLSDCVNYIVQDSKIQLPIIQLRKVWAEAVHYVSGLKEDYSRLFQGQRAAMLSLLRYNANLTKMKNTLISASQQLKAKLEFFHKSIQLDLERYSEQMTYGISSEKMLKAWKEMEEKAIHYAEVGVIGYLEDQIMSLHAEIMELQKSPYGRRQGDLMESLEQRAIDLYKQLKHRPSDHSYSDSTEMVKIIVHTVQSQDRVLKELFGHLSKLLGCKQKIIDLLPKVEVALSNIKEADNTVMFMQGKRQKEIWHLLKIACTQSSARSLVGSSLEGAVTPQTSAWLPPTSAEHDHSLSCVVTPQDGETSAQMIEENLNCLGHLSTIIHEANEEQGNSMMNLDWSWLTE
notes: Construct and tag not described for this test
B3: TRADD (other, UniProt Q15628 1-312, looked up)
chain: MAAGQNGHEEWVGSAYLFVESSLDKVVLSDAYAHPQQKVAVYRALQAALAESGGSPDVLQMLKIHRSDPQLIVQLRFCGRQPCGRFLRAYREGALRAALQRSLAAALAQHSVPLQLELRAGAERLDALLADEERCLSCILAQQPDRLRDEELAELEDALRNLKCGSGARGGDGEVASAPLQPPVPSLSEVKPPPPPPPAQTFLFQGQPVVNRPLSLKDQQTFARSVGLKWRKVGRSLQRGCRALRDPALDSLAYEYEREGLYEQAFQLLRRFVQAEGRRATLQRLVEALEENELTSLAEDLLGLTDPNGGLA
notes: as for B1
B4: IKKβ (enzyme, UniProt O14920 1-756, looked up)
chain: MSWSPSLTTQTCGAWEMKERLGTGGFGNVIRWHNQETGEQIAIKQCRQELSPRNRERWCLEIQIMRRLTHPNVVAARDVPEGMQNLAPNDLPLLAMEYCQGGDLRKYLNQFENCCGLREGAILTLLSDIASALRYLHENRIIHRDLKPENIVLQQGEQRLIHKIIDLGYAKELDQGSLCTSFVGTLQYLAPELLEQQKYTVTVDYWSFGTLAFECITGFRPFLPNWQPVQWHSKVRQKSEVDIVVSEDLNGTVKFSSSLPYPNNLNSVLAERLEKWLQLMLMWHPRQRGTDPTYGPNGCFKALDDILNLKLVHILNMVTGTIHTYPVTEDESLQSLKARIQQDTGIPEEDQELLQEAGLALIPDKPATQCISDGKLNEGHTLDMDLVFLFDNSKITYETQISPRPQPESVSCILQEPKRNLAFFQLRKVWGQVWHSIQTLKEDCNRLQQGQRAAMMNLLRNNSCLSKMKNSMASMSQQLKAKLDFFKTSIQIDLEKYSEQTEFGITSDKLLLAWREMEQAVELCGRENEVKLLVERMMALQTDIVDLQRSPMGRKQGGTLDDLEEQARELYRRLREKPRDQRTEGDSQEMVRLLLQAIQSFEKKVRVIYTQLSKTVVCKQKALELLPKVEEVVSLMNEDEKTVVRLQEKRQKELWNLLKIACSKVRGPVSGSPDSMNASRLSQPGQLMSQPSTASNSLPEPAKKSEELVAEAHNLCTLLENAIQDTVREQDQSFTALDWSWLQTEEEEHSCLEQAS
notes: as for B2
B5: RICKΔCARD (residues 1-374), Flag-tagged (other, not shown: small tags and cut ends)
chain: MNGEAICSALPTIPYHKLADLRYLSRGASGTVSSARHADWRVQVAVKHLHIHTPLLDSERKDVLREAEILHKARFSYILPILGICNEPEFLGIVTEYMPNGSLNELLHRKTEYPDVAWPLRFRILHEIALGVNYLHNMTPPLLHHDLKTQNILLDNEFHVKIADFGLSKWRMMSLSQSRSSKSAPEGGTIIYMPPENYEPGQKSRASIKHDIYSYAVITWEVLSRKQPFEDVTNPLQIMYSVSQGHRPVINEESLPYDIPHRARMISLIESGWAQNPDERPSFLKCLIELEPVLRTFEEITFLEAVIQLKKTKLQSVSSAIHLCDKKKMELSLNIPVNHGPQEESCGSSQLHENSGSPETSRSLPAPQDNDFLS
notes: also called pcDNA3-Flag-RICK(1-374)
B6: procaspase-9 (enzyme, UniProt P55211 1-416, looked up)
chain: MDEADRRLLRRCRLRLVEELQVDQLWDALLSRELFRPHMIEDIQRAGSGSRRDQARQLIIDLETRGSQALPLFISCLEDTGQDMLASFLRTNRQAAKLSKPTLENLTPVVLRPEIRKPEVLRPETPRPVDIGSGGFGDVGALESLRGNADLAYILSMEPCGHCLIINNVNFCRESGLRTRTGSNIDCEKLRRRFSSLHFMVEVKGDLTAKKMVLALLELAQQDHGALDCCVVVILSHGCQASHLQFPGAVYGTDGCPVSVEKIVNIFNGTSCPSLGGKPKLFFIQACGGEQKDHGFEVASTSPEDESPGSNPEPDATPFQEGLRTFDQLDAISSLPTPSDIFVSYSTFPGFVSWRDPKSGSWYVETLDDIFEQWAHSEDLQSLLLRVANAVSVKGIYKQMPGCFNFLRKKLFFKTS
notes: as for B1
B7: Bcl-10 (other, UniProt O95999 1-233, looked up)
chain: MEPTAPSLTEEDLTEVKKDALENLRVYLCEKIIAERHFDHLRAKKILSREDTEEISCRTSSRKRAGKLLDYLQENPKGLDTLVESIRREKTQNFLIQKITDEVLKLRNIKLEHLKGLKCSSCEPFPDGATNNLSRSNSDESNFSEKLRASTVMYHPEGESSTTPFFSTNSSLNLPVLEVGRTENTIFSSTTLPRPGDPGAPPLPPDLQLEEEGTCANSSEMFLPLRSRTVSRQ
notes: as for B1
B8: caspase-4 (enzyme, UniProt P49662 1-377, looked up)
chain: MAEGNHRKKPLKVLESLGKDFLTGVLDNLVEQNVLNWKEEEKKKYYDAKTEDKVRVMADSMQEKQRMAGQMLLQTFFNIDQISPNKKAHPNMEAGPPESGESTDALKLCPHEEFLRLCKERAEEIYPIKERNNRTRLALIICNTEFDHLPPRNGADFDITGMKELLEGLDYSVDVEENLTARDMESALRAFATRPEHKSSDSTFLVLMSHGILEGICGTVHDEKKPDVLLYDTIFQIFNNRNCLSLKDKPKVIIVQACRGANRGELWVRDSPASLEVASSQSSENLEEDAVYKTHVEKDFIAFCSSTPHNVSWRDSTMGSIFITQLITCFQKYSWCCHLEEVFRKVQQSFETPRAKAQMPTIERLSMTRYFYLFPGN
notes: as for B1
B9: Nod2 lacking the LRRs (1-744) (other)
chain: MGEEGGSASHDEEERASVLLGHSPGCEMCSQEAFQAQRSQLVELLVSGSLEGFESVLDWLLSWEVLSWEDYEGFHLLGQPLSHLARRLLDTVWNKGTWACQKLIAAAQEAQADSQSPKLHGCWDPHSLHPARDLQSHRPAIVRRLHSHVENMLDLAWERGFVSQYECDEIRLPIFTPSQRARRLLDLATVKANGLAAFLLQHVQELPVPLALPLEAATCKKYMAKLRTTVSAQSRFLSTYDGAETLCLEDIYTENVLEVWADVGMAGPPQKSPATLGLEELFSTPGHLNDDADTVLVVGEAGSGKSTLLQRLHLLWAAGQDFQEFLFVFPFSCRQLQCMAKPLSVRTLLFEHCCWPDVGQEDIFQLLLDHPDRVLLTFDGFDEFKFRFTDRERHCSPTDPTSVQTLLFNLLQGNLLKNARKVVTSRPAAVSAFLRKYIRTEFNLKGFSEQGIELYLRKRHHEPGVADRLIRLLQETSALHGLCHLPVFSWMVSKCHQELLLQEGGSPKTTTDMYLLILQHFLLHATPPDSASQGLGPSLLRGRLPTLLHLGRLALWGLGMCCYVFSAQQLQAAQVSPDDISLGFLVRAKGVVPGSTAPLEFLHITFQCFFAAFYLALSADVPPALLRHLFNCGRPGNSPMARLLPTMCIQASEGKDSSVAALLQKAEPHNLQITAAFLAGLLSREHWGLLAECQTSEKALLRRQACARWCLARSLRKHFHSIPPAAPGEAKSVHAMPGFIWLIR
notes: also called Nod2ΔLRR; Nod2 (1-744)

target: T1, Nod2 (wild-type, HA-tagged) (human, UniProt Q9HC29 1-1040); assay: co-immunoprecipitation, HEK293T extracts
T1 construct: Expressed in HEK293T cells and tested in cell extracts by co-immunoprecipitation; also called Nod2a; wt Nod2; not shown: HA tag; the plasmid is named both pcDNA3-Nod2-HA and pcDNA3-HA-Nod2, so the end that carries the ta
Description: Proteins co-immunoprecipitated with anti-HA antibody were detected with anti-Flag antibody. […] Proteins in total lysate were detected by anti-Flag and anti-HA monoclonal antibody, respectively. […]

T1 sequence (Q9HC29 whole entry): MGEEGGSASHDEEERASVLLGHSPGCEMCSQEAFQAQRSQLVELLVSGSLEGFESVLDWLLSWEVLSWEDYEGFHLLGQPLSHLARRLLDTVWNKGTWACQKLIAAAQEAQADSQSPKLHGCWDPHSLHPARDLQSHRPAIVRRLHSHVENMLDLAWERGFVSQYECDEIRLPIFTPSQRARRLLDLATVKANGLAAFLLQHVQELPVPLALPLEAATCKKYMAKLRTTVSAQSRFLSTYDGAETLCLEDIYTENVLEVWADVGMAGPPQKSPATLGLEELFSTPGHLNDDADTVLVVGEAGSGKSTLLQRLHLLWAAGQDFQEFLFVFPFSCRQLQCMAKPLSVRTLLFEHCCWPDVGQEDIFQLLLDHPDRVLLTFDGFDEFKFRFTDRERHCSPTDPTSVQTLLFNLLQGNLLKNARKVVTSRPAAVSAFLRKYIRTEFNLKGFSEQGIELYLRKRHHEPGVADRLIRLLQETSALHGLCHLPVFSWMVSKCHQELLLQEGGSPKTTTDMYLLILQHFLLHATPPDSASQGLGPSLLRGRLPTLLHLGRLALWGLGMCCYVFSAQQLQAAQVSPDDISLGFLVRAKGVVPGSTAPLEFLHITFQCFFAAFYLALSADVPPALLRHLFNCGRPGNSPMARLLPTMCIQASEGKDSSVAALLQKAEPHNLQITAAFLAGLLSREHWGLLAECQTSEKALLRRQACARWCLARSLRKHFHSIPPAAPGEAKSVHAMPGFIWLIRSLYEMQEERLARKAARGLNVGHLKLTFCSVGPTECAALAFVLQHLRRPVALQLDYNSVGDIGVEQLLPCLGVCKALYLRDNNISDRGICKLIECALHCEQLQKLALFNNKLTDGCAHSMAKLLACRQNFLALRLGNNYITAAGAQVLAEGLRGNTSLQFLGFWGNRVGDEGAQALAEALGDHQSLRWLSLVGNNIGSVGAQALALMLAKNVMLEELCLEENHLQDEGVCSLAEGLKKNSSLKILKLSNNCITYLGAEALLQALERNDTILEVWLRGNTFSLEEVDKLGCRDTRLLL

binding result | Binder
no binding | B1
no binding | B2
no binding | B3
no binding | B4
no binding | B5
no binding | B6
no binding | B7
no binding | B8

Target: the molecule itself
Assay: method not described ('our observations'); self-association

Binder | binding result
B9 | binds
